Source: PMC2787013, “DNA Specificity Determinants Associate with Distinct Transcription Factor Functions”
Numbering of substitutions follows the chain as printed.

Assays:
Test in all cases: EMSA; Protein 3-fold dilutions with 1e-11 (M) 32P-dsDNA, 30 min on ice, 6% polyacrylamide gel; binding buffer as in earlier paper (not given); protein dialysis buffer 10 mM Tris pH 7.9, 0.5 mM EDTA, 50 mM KCl, 1 mM DTT, 10% glycerol
Conditions in all cases: protein: recombinant; tags: N-terminal 6xHis (pET28a); label: 32P; (only one strand given)
ELF1 [1] = molecular target: T1, ELF1 (human, UniProt P32519 1-619)
T1 sequence (P32519 whole entry): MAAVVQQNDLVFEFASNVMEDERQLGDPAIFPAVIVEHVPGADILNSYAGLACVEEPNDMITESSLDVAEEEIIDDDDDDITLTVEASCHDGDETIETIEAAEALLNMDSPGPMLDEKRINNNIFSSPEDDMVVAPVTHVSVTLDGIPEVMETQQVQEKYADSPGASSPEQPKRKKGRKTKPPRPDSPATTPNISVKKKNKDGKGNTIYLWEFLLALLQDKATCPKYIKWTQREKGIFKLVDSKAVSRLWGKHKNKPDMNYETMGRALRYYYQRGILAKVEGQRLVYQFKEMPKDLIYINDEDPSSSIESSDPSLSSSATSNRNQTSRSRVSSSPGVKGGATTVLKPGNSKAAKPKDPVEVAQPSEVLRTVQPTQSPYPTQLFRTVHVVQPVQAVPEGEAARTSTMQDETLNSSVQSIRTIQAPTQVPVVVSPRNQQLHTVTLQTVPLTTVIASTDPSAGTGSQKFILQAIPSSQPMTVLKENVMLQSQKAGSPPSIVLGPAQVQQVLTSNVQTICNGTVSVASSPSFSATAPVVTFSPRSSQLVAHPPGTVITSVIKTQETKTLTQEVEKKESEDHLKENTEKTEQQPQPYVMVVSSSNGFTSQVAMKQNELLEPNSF

ETS1 (p51) [2] = molecular target: T2, ETS1 (p51) (human, UniProt P14921 1-441)
T2 sequence: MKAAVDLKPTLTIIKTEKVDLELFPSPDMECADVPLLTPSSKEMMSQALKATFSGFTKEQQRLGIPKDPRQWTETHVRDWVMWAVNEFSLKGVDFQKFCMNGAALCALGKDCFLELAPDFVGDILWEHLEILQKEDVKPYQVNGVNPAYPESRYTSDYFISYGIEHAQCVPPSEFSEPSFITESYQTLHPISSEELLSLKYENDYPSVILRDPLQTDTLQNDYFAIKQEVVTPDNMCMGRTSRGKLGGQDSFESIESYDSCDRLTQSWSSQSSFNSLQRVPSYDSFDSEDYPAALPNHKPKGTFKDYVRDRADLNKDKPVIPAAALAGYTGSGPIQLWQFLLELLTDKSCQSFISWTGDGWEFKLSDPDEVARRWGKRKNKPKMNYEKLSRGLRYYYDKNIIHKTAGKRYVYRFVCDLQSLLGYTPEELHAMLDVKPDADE

ELF1 [3] = molecular target: T1, ELF1; remark: listed apart in the source
ETS1 (p51) [4] = molecular target: T2, ETS1 (p51); remark: listed apart in the source

B1: ETS consensus CCGGAAGT (dsDNA)
DNA 1: GGCCAAGCCGGAAGTGTGTGGTAAACACTTT
DNA 2: AAAGTGTTTACCACACACTTCCGGCTTGGCC
Question: B1 was tested. Which Kd (ELF1 [1]) did it give?
Answer: 0.17 nM

Question: And the Kd (ETS1 (p51) [2])?
Answer: 1.7 nM

B2: C to A variant CAGGAAGT (dsDNA)
DNA 1: B1 DNA 1 with C9A
DNA 2: B1 DNA 2 with G23T
Question: Which results are given for B2?
Answer: binding signal (ELF1 [3]): 1.9 fold decrease in affinity vs N1; binding signal (ETS1 (p51) [4]): 1.5 fold decrease in affinity vs N1

B3: A to T variant CCGGATGT (dsDNA)
DNA 1: B1 DNA 1 with A13T
DNA 2: B1 DNA 2 with T19A
Question: Which binding signal (ELF1 [3]) does the source give for B3 here?
Answer: 3.6 fold decrease in affinity vs N1

Question: What about the binding signal (ETS1 (p51) [4]) of the same binder?
Answer: 1 fold decrease in affinity vs N1

B4: double variant CAGGATGT (dsDNA)
DNA 1: B1 DNA 1 with C9A, A13T
DNA 2: B1 DNA 2 with T19A, G23T
Question: For B4, which binding signal (ELF1 [3]) is on record?
Answer: 18.3 fold decrease in affinity vs N1

Question: And the binding signal (ETS1 (p51) [4])?
Answer: 2.4 fold decrease in affinity vs N1
